Source: US10800847
Each block holds one substance with its values, some of them ahead of it.

Key:
[1] = target: HLA-B*2705 (B27) single antigen on Luminex beads (human); test: Luminex single antigen, iBeads (#6), IVIg 1:8
[2] = target: HLA-B*2708 (B27) single antigen on Luminex beads (human); test: Luminex single antigen, iBeads (#6), IVIg 1:8
[3] = target: HLA-B*3501 (B35) single antigen on Luminex beads (human); test: Luminex single antigen, iBeads (#6), IVIg 1:8
[4] = target: HLA-B*3701 (B37) single antigen on Luminex beads (human); test: Luminex single antigen, iBeads (#6), IVIg 1:8
[5] = target: HLA-B*3801 (B38) single antigen on Luminex beads (human); test: Luminex single antigen, iBeads (#6), IVIg 1:8
[6] = target: HLA-B*3901 (B39) single antigen on Luminex beads (human); test: Luminex single antigen, iBeads (#6), IVIg 1:8
[7] = target: HLA-B*4001 (B60) single antigen on Luminex beads (human); test: Luminex single antigen, iBeads (#6), IVIg 1:8
[8] = target: HLA-B*4002 (B61) single antigen on Luminex beads (human); test: Luminex single antigen, iBeads (#6), IVIg 1:8
[9] = target: HLA-B*4006 (B61) single antigen on Luminex beads (human); test: Luminex single antigen, iBeads (#6), IVIg 1:8
[10] = target: HLA-B*4101 (B41) single antigen on Luminex beads (human); test: Luminex single antigen, iBeads (#6), IVIg 1:8
[11] = target: HLA-B*4201 (B42) single antigen on Luminex beads (human); test: Luminex single antigen, iBeads (#6), IVIg 1:8
[12] = target: HLA-B*4402 (B44) single antigen on Luminex beads (human); test: Luminex single antigen, iBeads (#6), IVIg 1:8
[13] = target: HLA-B*4403 (B44) single antigen on Luminex beads (human); test: Luminex single antigen, iBeads (#6), IVIg 1:8
[14] = target: HLA-B*4501 (B45) single antigen on Luminex beads (human); test: Luminex single antigen, iBeads (#6), IVIg 1:8
[15] = target: HLA-B*4601 (B46) single antigen on Luminex beads (human); test: Luminex single antigen, iBeads (#6), IVIg 1:8
[16] = target: Albumin on negative control beads (serum albumin, HSA/BSA) (human or bovine); test: Luminex single antigen beads, iBeads (#6), 1:8
[17] = target: HLA-A*0301 (A3) on single antigen beads (human) (UniProt P04439); test: Luminex single antigen beads, iBeads (#6), 1:8
[18] = target: Albumin on negative control beads (serum albumin, HSA/BSA) (human or bovine); test: Luminex, iBead MFI against regular bead MFI, 1:8
[19] = target: HLA-A*0301 (A3) on single antigen beads (human) (UniProt P04439); test: Luminex, iBead MFI against regular bead MFI, 1:8
[20] = target: HLA-B*2708 (B27) single antigen on Luminex beads (human); test: Luminex single antigen, regular beads (#7), IVIg 1:8
[21] = target: HLA-B*3501 (B35) single antigen on Luminex beads (human); test: as above
[22] = target: HLA-B*3701 (B37) single antigen on Luminex beads (human); test: as above
[23] = target: HLA-B*3801 (B38) single antigen on Luminex beads (human); test: as above
[24] = target: HLA-B*3901 (B39) single antigen on Luminex beads (human); test: as above
[25] = target: HLA-B*4002 (B61) single antigen on Luminex beads (human); test: as above
[26] = target: HLA-B*4006 (B61) single antigen on Luminex beads (human); test: as above
[27] = target: HLA-B*4101 (B41) single antigen on Luminex beads (human); test: as above
[28] = target: HLA-B*4402 (B44) single antigen on Luminex beads (human); test: as above
[29] = target: HLA-B*4403 (B44) single antigen on Luminex beads (human); test: as above
[30] = target: HLA-B*4501 (B45) single antigen on Luminex beads (human); test: as above
[31] = target: HLA-B*4601 (B46) single antigen on Luminex beads (human); test: as above
[32] = target: HLA-B*4701 (B47) single antigen on Luminex beads (human); test: as above
[33] = target: Albumin on negative control beads (serum albumin, HSA/BSA) (human or bovine); test: Luminex single antigen beads, regular beads (#7), 1:8
[34] = target: HLA-A*0301 (A3) on single antigen beads (human) (UniProt P04439); test: as above
[35] = target: HLA-B*2705 (B27) single antigen on Luminex beads (human); test: Luminex single antigen, iBead vs regular bead, IVIg 1:8
[36] = target: HLA-B*2708 (B27) single antigen on Luminex beads (human); test: as above
[37] = target: HLA-B*3501 (B35) single antigen on Luminex beads (human); test: as above
[38] = target: HLA-B*3701 (B37) single antigen on Luminex beads (human); test: as above
[39] = target: HLA-B*3801 (B38) single antigen on Luminex beads (human); test: as above
[40] = target: HLA-B*3901 (B39) single antigen on Luminex beads (human); test: as above
[41] = target: HLA-B*4001 (B60) single antigen on Luminex beads (human); test: as above
[42] = target: HLA-B*4002 (B61) single antigen on Luminex beads (human); test: as above
[43] = target: HLA-B*4006 (B61) single antigen on Luminex beads (human); test: as above
[44] = target: HLA-B*4101 (B41) single antigen on Luminex beads (human); test: as above
[45] = target: HLA-B*4201 (B42) single antigen on Luminex beads (human); test: as above
[46] = target: HLA-B*4402 (B44) single antigen on Luminex beads (human); test: as above
[47] = target: HLA-B*4403 (B44) single antigen on Luminex beads (human); test: as above
[48] = target: HLA-B*4501 (B45) single antigen on Luminex beads (human); test: as above
[49] = target: HLA-B*4601 (B46) single antigen on Luminex beads (human); test: as above
[50] = target: HLA-B*4701 (B47) single antigen on Luminex beads (human); test: as above
[51] = target: HLA-B*3501 (B35) (human); test: Luminex single-antigen beads (iBeads), culture supernatant
[52] = target: HLA-B*3701 (B37) (human); test: as above
[53] = target: HLA-B*3801 (B38) (human); test: as above
[54] = target: HLA-B*3901 (B39) (human); test: as above
[55] = target: HLA-B*4001 (B60) (human); test: as above
[56] = target: HLA-B*4002 (B61) (human); test: as above
[57] = target: HLA-B*4006 (B61) (human); test: as above
[58] = target: HLA-B*4101 (B41) (human); test: as above
[59] = target: HLA-B*4201 (B42) (human); test: as above
[60] = target: HLA-B*4402 (B44) (human); test: as above
[61] = target: HLA-B*4403 (B44) (human); test: as above
[62] = target: HLA-B*4501 (B45) (human); test: as above
[63] = target: HLA-B*4601 (B46) (human); test: as above
[64] = target: HLA-B*4701 (B47) (human); test: as above
[65] = target: HLA-B*4801 (B48) (human); test: as above
[66] = target: HLA-B*4901 (B49) (human); test: as above
[67] = target: HLA-B*5001 (B50) (human); test: as above
[68] = target: HLA-B*5101 (B51) (human); test: as above
[69] = target: HLA-A*0101 (A1) single antigen bead (human); test: Luminex single antigen bead assay (IBEADS), culture supernatant
[70] = target: HLA-A*0201 (A2) single antigen bead (human); test: as above
[71] = target: HLA-A*0203 (A2) single antigen bead (human); test: as above
[72] = target: HLA-A*0206 (A2) single antigen bead (human); test: as above
[73] = target: HLA-A*0301 (A3) single antigen bead (human); test: as above
[74] = target: HLA-A*1101 (A11) single antigen bead (human); test: as above
[75] = target: HLA-A*1102 (A11) single antigen bead (human); test: as above
[76] = target: HLA-A*2301 (A23) single antigen bead (human); test: as above
[77] = target: HLA-A*2402 (A24) single antigen bead (human); test: as above
[78] = target: HLA-A*2403 (A24) single antigen bead (human); test: as above
[79] = target: HLA-A*2501 (A25) single antigen bead (human); test: as above
[80] = target: HLA-A*2601 (A26) single antigen bead (human); test: as above
[81] = target: HLA-A*2901 (A29) single antigen bead (human); test: as above
[82] = target: HLA-A*2902 (A29) single antigen bead (human); test: as above
[83] = target: HLA-A*3001 (A30) single antigen bead (human); test: as above
[84] = target: HLA-A*3002 (A30) single antigen bead (human); test: as above
[85] = target: Negative control beads coated with serum albumin (HSA/BSA) (human or bovine); test: as above

MFI [1]: 0 MFI | MFI [2]: 0 MFI | MFI [3]: 577 MFI | MFI [4]: 612 MFI | MFI [5]: 0 MFI | MFI [6]: 0 MFI | MFI [7]: 93 MFI | MFI [8]: 0 MFI | MFI [9]: 421 MFI | MFI [10]: 0 MFI | MFI [11]: 0 MFI | MFI [12]: 786 MFI | MFI [13]: 836 MFI | MFI [14]: 399 MFI | MFI [15]: 851 MFI | MFI [16]: 7800 MFI | MFI [17]: -211 MFI | Difference % (iBead against regular bead) [18]: -24% | Difference % (iBead against regular bead) [19]: -151% | MFI [20]: 0 MFI | MFI [21]: 1480 MFI | MFI [22]: 4790 MFI | MFI [23]: 1260 MFI | MFI [24]: 0 MFI | MFI [25]: 0 MFI | MFI [26]: 4340 MFI | MFI [27]: 605 MFI | MFI [28]: 5310 MFI | MFI [29]: 1210 MFI | MFI [30]: 562 MFI | MFI [31]: 2450 MFI | MFI [32]: 2030 MFI | MFI [33]: 10300 MFI | MFI [34]: 410 MFI | Difference % (iBead against regular bead MFI) [35]: -100% | Difference % (iBead against regular bead MFI) [36]: 0% | Difference % (iBead against regular bead MFI) [37]: -61% | Difference % (iBead against regular bead MFI) [38]: -87% | Difference % (iBead against regular bead MFI) [39]: -100% | Difference % (iBead against regular bead MFI) [40]: 0% | Difference % (iBead against regular bead MFI) [41]: -93% | Difference % (iBead against regular bead MFI) [42]: 0% | Difference % (iBead against regular bead MFI) [43]: -90% | Difference % (iBead against regular bead MFI) [44]: -100% | Difference % (iBead against regular bead MFI) [45]: -100% | Difference % (iBead against regular bead MFI) [46]: -85% | Difference % (iBead against regular bead MFI) [47]: -31% | Difference % (iBead against regular bead MFI) [48]: -29% | Difference % (iBead against regular bead MFI) [49]: -65% | Difference % (iBead against regular bead MFI) [50]: -39%
Substance: Gamunex-C Lot NKLK1 (IVIg) (antibody)

MFI [51]: 60 MFI | MFI [52]: 43 MFI | MFI [53]: 24 MFI | MFI [54]: 21 MFI | MFI [55]: 28 MFI | MFI [56]: 33 MFI | MFI [57]: 41 MFI | MFI [58]: 89 MFI | MFI [59]: 32 MFI | MFI [60]: 32 MFI | MFI [61]: 18 MFI | MFI [62]: 18 MFI | MFI [63]: 23 MFI | MFI [64]: 38 MFI | MFI [65]: 21 MFI | MFI [66]: 71 MFI | MFI [67]: 67 MFI | MFI [68]: 45 MFI | MFI [69]: 28 MFI | MFI [70]: 31 MFI | MFI [71]: 31 MFI | MFI [72]: 27 MFI | MFI [73]: 36 MFI | MFI [74]: 51 MFI | MFI [75]: 60 MFI | MFI [76]: 36 MFI | MFI [77]: 42 MFI | MFI [78]: 53 MFI | MFI [79]: 24 MFI | MFI [80]: 57 MFI | MFI [81]: 115 MFI | MFI [82]: 23 MFI | MFI [83]: 45 MFI | MFI [84]: 69 MFI | MFI [85]: 6 MFI
Substance: TFL Anti-HLA-E Mab PTG-006 (antibody)
